Measured values: the supplement of paper PMC10065799, “High-throughput profiling of sequence recognition by tyrosine kinases and SH2 domains using bacterial peptide display” (eLife, 2023)

Tests used:
c-Abl (mouse) = test: phosphorylation enrichment, bacterial display (enrichment ratio); higher = better substrate or ligand; peptides without Tyr show the background
Fer (mouse) = test: as above
c-Src = test: as above
Hck = Hck (UniProt P08631); test: as above
Fyn = Fyn (UniProt P06241); test: as above
FGFR1 = FGFR1 (UniProt P11362); test: as above
Chain of FGFR1 (P11362 whole entry, looked up): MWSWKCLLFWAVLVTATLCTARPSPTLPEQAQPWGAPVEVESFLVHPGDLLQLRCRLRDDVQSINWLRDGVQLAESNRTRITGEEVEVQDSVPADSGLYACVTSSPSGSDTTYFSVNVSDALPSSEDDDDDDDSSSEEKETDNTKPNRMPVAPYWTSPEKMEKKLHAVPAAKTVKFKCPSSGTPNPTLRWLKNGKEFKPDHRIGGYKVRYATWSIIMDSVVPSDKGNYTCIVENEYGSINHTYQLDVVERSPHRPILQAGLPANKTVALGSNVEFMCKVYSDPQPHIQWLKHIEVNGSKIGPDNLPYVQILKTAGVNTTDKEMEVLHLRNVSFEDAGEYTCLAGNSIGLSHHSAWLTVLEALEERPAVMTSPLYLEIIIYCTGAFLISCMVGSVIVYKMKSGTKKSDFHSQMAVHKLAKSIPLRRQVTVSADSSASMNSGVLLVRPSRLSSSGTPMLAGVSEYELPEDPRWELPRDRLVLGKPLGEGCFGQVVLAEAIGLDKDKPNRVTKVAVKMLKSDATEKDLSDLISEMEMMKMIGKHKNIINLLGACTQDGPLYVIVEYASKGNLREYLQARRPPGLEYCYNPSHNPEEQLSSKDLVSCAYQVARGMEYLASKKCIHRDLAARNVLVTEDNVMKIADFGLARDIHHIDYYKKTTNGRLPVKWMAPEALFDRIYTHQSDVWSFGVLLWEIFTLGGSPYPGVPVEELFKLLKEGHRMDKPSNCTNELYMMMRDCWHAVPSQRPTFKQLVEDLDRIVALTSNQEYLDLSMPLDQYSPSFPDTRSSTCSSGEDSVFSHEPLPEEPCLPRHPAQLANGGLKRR

Fes = Fes (UniProt P07332); test: as above
Chain of Fes (P07332 whole entry, looked up): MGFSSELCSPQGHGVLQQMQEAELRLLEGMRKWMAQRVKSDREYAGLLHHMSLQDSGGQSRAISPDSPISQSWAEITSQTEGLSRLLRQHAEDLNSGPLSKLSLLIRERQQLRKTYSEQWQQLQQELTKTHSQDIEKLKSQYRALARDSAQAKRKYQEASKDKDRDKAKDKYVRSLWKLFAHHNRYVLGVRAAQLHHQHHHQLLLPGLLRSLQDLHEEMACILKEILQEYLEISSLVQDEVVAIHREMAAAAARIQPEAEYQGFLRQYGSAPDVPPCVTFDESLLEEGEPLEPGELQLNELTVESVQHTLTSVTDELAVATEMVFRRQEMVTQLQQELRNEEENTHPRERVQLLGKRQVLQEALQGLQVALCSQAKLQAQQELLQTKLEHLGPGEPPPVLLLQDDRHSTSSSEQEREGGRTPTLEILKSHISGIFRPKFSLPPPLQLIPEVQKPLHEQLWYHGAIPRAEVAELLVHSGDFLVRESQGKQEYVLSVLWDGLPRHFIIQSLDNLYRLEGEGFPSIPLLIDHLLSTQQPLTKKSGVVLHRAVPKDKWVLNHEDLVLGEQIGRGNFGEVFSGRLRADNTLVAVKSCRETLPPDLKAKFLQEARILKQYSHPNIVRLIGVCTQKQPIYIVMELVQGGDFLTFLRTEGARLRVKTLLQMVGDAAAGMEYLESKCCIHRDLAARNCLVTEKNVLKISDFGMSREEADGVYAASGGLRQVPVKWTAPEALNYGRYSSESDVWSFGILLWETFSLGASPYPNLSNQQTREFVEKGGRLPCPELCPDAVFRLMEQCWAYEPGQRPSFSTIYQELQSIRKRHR

AncSZ = test: as above
FGFR3 = FGFR3 (UniProt P22607); test: as above
MERTK = MERTK (UniProt Q12866); test: as above
Chain of MERTK (Q12866 whole entry, looked up): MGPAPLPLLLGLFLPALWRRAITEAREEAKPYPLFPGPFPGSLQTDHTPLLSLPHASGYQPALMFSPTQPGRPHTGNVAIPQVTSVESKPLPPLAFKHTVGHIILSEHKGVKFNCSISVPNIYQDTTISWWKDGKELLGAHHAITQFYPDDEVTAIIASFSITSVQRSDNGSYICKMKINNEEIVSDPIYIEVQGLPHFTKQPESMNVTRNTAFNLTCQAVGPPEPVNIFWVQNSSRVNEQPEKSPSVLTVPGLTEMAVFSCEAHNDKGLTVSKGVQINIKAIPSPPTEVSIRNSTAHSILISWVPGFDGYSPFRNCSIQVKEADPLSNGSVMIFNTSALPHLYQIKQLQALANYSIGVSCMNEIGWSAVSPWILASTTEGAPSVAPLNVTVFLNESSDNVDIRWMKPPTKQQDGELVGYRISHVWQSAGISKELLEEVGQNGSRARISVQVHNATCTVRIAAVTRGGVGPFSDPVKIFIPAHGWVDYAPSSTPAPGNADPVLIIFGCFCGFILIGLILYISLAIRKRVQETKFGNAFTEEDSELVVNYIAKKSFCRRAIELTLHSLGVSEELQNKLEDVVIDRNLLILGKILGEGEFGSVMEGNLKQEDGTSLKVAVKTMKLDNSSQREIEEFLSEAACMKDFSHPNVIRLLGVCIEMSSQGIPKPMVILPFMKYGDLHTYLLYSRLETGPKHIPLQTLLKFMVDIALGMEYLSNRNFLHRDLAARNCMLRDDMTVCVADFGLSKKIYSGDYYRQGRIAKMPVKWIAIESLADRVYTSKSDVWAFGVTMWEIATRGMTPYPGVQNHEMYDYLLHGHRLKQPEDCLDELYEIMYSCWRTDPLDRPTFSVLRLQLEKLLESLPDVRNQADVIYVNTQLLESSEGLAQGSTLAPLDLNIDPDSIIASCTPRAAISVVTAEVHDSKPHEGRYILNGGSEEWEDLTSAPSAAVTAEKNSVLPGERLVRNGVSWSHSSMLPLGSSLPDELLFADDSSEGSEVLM

EPHB1 = EPHB1 (UniProt P54762); test: as above
Jak2 = Jak2 (UniProt O60674); test: as above
Chain of Jak2 (O60674 whole entry, looked up): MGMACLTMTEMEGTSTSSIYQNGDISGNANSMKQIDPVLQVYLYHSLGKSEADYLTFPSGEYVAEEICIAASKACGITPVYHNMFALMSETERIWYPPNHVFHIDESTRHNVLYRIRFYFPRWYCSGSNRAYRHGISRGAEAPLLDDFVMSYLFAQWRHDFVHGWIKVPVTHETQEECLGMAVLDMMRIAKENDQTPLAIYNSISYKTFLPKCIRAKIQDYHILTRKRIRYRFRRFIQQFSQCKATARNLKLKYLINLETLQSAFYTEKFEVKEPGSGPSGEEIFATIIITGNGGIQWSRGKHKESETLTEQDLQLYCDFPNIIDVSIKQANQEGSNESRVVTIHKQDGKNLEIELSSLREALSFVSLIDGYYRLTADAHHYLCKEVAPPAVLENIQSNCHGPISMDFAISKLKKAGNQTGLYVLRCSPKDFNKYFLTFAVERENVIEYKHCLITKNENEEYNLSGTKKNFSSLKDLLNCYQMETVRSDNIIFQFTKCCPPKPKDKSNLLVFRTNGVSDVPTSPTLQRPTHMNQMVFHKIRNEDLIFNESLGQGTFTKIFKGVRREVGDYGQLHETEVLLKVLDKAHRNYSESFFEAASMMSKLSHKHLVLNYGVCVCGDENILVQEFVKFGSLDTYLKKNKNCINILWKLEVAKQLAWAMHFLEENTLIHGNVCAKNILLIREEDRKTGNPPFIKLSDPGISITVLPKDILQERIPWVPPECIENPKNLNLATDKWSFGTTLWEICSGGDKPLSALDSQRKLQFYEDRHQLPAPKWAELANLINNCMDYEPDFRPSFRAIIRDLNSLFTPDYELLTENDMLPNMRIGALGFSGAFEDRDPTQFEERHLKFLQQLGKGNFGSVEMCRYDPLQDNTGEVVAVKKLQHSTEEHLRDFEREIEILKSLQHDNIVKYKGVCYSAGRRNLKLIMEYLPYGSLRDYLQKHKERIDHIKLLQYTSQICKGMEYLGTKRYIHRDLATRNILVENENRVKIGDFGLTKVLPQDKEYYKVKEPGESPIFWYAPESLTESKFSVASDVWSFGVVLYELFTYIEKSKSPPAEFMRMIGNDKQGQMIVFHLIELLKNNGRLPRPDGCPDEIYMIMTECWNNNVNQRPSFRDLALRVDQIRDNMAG

EPHB2 = EPHB2 (UniProt P29323); test: as above
Chain of EPHB2 (P29323 whole entry, looked up): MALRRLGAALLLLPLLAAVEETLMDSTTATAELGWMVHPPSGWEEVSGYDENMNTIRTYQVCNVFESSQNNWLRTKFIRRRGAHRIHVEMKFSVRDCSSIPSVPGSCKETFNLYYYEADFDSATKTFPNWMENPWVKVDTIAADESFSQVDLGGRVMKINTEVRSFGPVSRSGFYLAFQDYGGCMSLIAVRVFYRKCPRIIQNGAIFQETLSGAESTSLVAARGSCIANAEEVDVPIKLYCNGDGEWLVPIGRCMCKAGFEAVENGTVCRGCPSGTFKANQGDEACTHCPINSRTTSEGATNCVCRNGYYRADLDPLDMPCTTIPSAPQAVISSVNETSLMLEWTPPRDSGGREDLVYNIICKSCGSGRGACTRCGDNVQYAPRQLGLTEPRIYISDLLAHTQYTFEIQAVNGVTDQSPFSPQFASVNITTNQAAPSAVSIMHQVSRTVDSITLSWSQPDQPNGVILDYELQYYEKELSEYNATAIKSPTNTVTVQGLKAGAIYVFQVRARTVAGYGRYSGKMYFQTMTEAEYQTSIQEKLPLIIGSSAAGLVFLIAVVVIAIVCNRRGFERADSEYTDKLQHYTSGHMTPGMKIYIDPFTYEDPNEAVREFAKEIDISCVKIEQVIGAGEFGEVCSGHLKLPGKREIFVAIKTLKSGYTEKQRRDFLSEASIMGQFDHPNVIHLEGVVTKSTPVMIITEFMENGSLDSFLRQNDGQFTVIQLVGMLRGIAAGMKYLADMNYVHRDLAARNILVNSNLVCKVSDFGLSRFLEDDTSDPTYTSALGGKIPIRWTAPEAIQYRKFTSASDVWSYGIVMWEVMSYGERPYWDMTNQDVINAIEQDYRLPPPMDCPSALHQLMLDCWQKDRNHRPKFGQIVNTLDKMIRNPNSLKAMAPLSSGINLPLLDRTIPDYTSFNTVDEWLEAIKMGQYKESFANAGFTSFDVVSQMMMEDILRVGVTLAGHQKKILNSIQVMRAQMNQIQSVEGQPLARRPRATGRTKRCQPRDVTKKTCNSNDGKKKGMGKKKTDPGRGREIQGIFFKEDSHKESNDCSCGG

c-Src SH2 = test: SH2 binding enrichment of the phosphorylated peptide, bacterial display (enrichment ratio); higher = better substrate or ligand; peptides without Tyr show the background
SHP2-C SH2 = test: as above
Grb2 SH2 = Grb2 SH2 (UniProt P62993); test: as above
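Throughout, for SH2 binding enrichment of the phosphorylated peptide, bacterial display: peptide library displayed on the E. coli surface as eCPX fusions, selected cells deep-sequenced, score is each peptide's frequency after selection divided by its frequency in the input.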
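Throughout, for phosphorylation enrichment, bacterial display: 11-residue human phosphosite peptides and single-mutation variants displayed on the E. coli surface, counted by deep sequencing, each peptide's frequency after selection divided by its frequency in the unselected input library; frequency after pTyr selection over input frequency; kinase dosed for 20-30% of maximal phosphorylation in three min.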

Sequence	SH2 binding enrichment (c-Src SH2)	SH2 binding enrichment (SHP2-C SH2)	SH2 binding enrichment (Grb2 SH2)	phosphorylation enrichment (c-Abl (mouse))	phosphorylation enrichment (Fer (mouse))	phosphorylation enrichment (c-Src)	phosphorylation enrichment (Hck)	phosphorylation enrichment (Fyn)	phosphorylation enrichment (FGFR1)	phosphorylation enrichment (Fes)	phosphorylation enrichment (AncSZ)	phosphorylation enrichment (FGFR3)	phosphorylation enrichment (MERTK)	phosphorylation enrichment (EPHB1)	phosphorylation enrichment (Jak2)	phosphorylation enrichment (EPHB2)
ECKASYPGKIT [PRSS3_Y232]	0.557	0.56	0.823	0.489	0.396	0.438	0.323	0.319	0.431	0.596	0.53	0.418	0.402	0.357	0.396	0.389
EDSEFYRAFEE [CASQ2_Y179_K180R_YF]	0.751	0.682	0.963	0.771	0.489	0.494	0.513	0.538	0.473	1.07	1.15	0.848	0.449	0.582	1.02	0.525
EEAAGCAQESQ [CAMKV_Y491_Y491C]	0.79	0.837	0.974	1.18	0.657	0.491	0.575	0.491	0.527	1.23	1.15	0.833	0.625	0.645	1.06	0.591
EFLKNYFTDKA [DSG2_Y775_R773K]	0.365	0.882	0.764	0.573	0.361	0.632	0.556	0.581	0.555	0.827	0.847	0.493	0.531	0.527	0.808	0.63
EKAEVYGSENE [RIOK2_Y348]	0.618	0.567	0.825	0.609	0.457	0.483	0.464	0.566	0.455	1	1.11	0.625	0.445	0.464	0.911	0.52
EKPAKYDDIKK [GAPDH_Y255]	1.34	0.662	0.657	0.632	0.392	0.352	0.426	0.316	0.391	1.01	0.782	0.503	0.334	0.441	0.745	0.452
EKRDAYVSRLN [GSR_Y150]	0.43	0.608	0.772	0.423	0.328	0.377	0.429	0.351	0.418	0.575	0.547	0.441	0.397	0.455	0.48	0.434
ENGPFYTSFPP [GDAP2_Y488_YF]	0.83	0.711	0.813	8.39	4.74	6.71	7.05	8.74	3.86	1.04	1.12	2.62	13.1	2.92	1.61	2.41
EPNSRYTCKLE [USH2A_Y3745_Y3747C]	0.576	0.826	1.06	0.762	0.566	0.539	0.549	0.563	0.621	0.985	1.02	0.724	0.497	0.556	0.897	0.562
EQSGSYIWVLA [DLG1_Y895_P899L]	0.383	0.394	0.65	0.705	0.526	0.476	0.517	0.482	1.11	1.32	1.27	0.917	0.504	0.634	1.14	0.641
EREYKYGAHNY [OAT_Y50]	0.623	0.783	0.927	0.506	0.35	0.394	0.333	0.445	0.348	0.558	0.516	0.43	0.397	0.354	0.5	0.376
ERRLIYASDPK [VPS13D_Y864_T865A]	0.625	0.589	0.837	0.545	0.395	0.475	0.473	0.418	0.46	0.678	0.634	0.479	0.45	0.443	0.506	0.391
ESKKHYGFSLF [ANXA3_Y295_F291S_YF]	0.644	0.717	1.03	0.676	0.526	0.453	0.528	0.513	0.572	1.03	1.01	0.678	0.526	0.574	0.93	0.541
ETALHYIHDGI [GATD3A_Y250]	0.501	1.03	0.786	0.659	0.525	0.48	0.432	0.433	0.412	0.796	0.818	0.637	0.431	0.524	0.775	0.525

Now from value to sequence, other results behind:

SH2 binding enrichment (c-Src SH2)	SH2 binding enrichment (SHP2-C SH2)	SH2 binding enrichment (Grb2 SH2)	Sequence	phosphorylation enrichment (c-Abl (mouse))	phosphorylation enrichment (Fer (mouse))	phosphorylation enrichment (c-Src)	phosphorylation enrichment (Hck)	phosphorylation enrichment (Fyn)	phosphorylation enrichment (FGFR1)	phosphorylation enrichment (Fes)	phosphorylation enrichment (AncSZ)	phosphorylation enrichment (FGFR3)	phosphorylation enrichment (MERTK)	phosphorylation enrichment (EPHB1)	phosphorylation enrichment (Jak2)	phosphorylation enrichment (EPHB2)
0.889	0.75	0.884	ECKETYHEGEC [PRKN_Y372_A371T]	1.03	0.696	0.645	0.694	0.649	0.721	1.62	1.47	0.808	0.629	0.608	1.62	0.728
0.6	0.626	1.06	ECKFLYSRKEG [PTPN11_Y263_L261F]	0.639	0.362	0.423	0.618	0.537	0.495	0.939	0.969	0.593	0.436	0.576	0.849	0.594
0.603	0.781	1.08	EDAHHYLCKEV [JAK2_Y382_A377E]	0.657	0.441	0.366	0.439	0.542	0.588	0.857	0.799	0.778	0.411	0.656	0.632	0.493
0.498	0.675	0.933	EDASEYFENYI [PARP4_Y214]	0.658	0.51	0.539	0.597	0.613	0.84	1.21	1.62	0.83	0.527	0.549	1.15	0.66
0.722	0.807	0.754	EEHIPYTHMNG [INSR_Y1361]	0.555	0.452	0.371	0.51	0.451	0.497	0.85	0.797	0.598	0.403	0.54	0.668	0.517
6.69	0.473	0.829	EESREYDRLFE [PIK3R1_Y463_K459E_YF]	1.07	0.599	0.654	0.657	0.493	0.609	1.49	1.46	0.762	0.546	0.489	1.48	0.681
0.873	0.72	1.32	EFITRYIASLK [PSMA7_Y110_YF]	0.648	0.454	0.435	0.436	0.495	0.419	0.806	0.84	0.536	0.475	0.585	0.695	0.506
0.459	0.59	0.772	EFQKKYSDADI [CKAP5_Y1860_K1857Q_YF]	0.745	0.378	0.35	0.487	0.422	0.442	0.921	0.837	0.544	0.344	0.399	0.594	0.383
0.56	0.964	0.84	EGNEQYEGFCV [GRIA3_Y451_R450Q_YF]	0.791	2.87	0.788	0.721	0.726	0.618	1.41	1.29	0.822	0.832	0.962	1.01	0.639
0.412	0.429	0.82	EGTATYAAAIL [JUP_Y644_V648I]	0.976	1.57	1.25	1.21	1.25	0.476	0.872	0.857	0.586	0.534	0.884	0.795	1.76
0.546	0.871	1.03	EGWQVYRLGTR [MISP_Y95_A99T]	0.525	0.45	3.69	1.03	1.78	0.44	0.75	0.846	0.645	0.325	0.416	0.733	0.457
0.46	0.793	0.965	EILDVYIFLGP [GAA_Y340_G335E]	0.649	0.532	0.962	0.742	0.934	2	1.27	1.4	1.79	1.15	0.912	1.37	0.889
0.719	0.694	0.959	EKESCYILHSS [PATJ_Y783_E779K]	0.707	0.623	0.595	0.497	0.549	0.572	1.09	1.28	0.77	0.533	0.531	0.936	0.519
0.51	0.729	0.911	EKGEEYGGGGG [TUBA1A_Y451_E447K]	0.384	0.499	0.293	0.63	0.448	0.578	0.855	0.847	0.67	0.296	0.585	0.578	0.574
0.603	1.11	0.95	EKLQKYYRKNP [EHHADH_Y682_Q685K]	0.699	0.417	0.482	0.353	0.388	0.45	0.753	0.575	0.598	0.394	0.471	0.694	0.484
0.666	0.948	2.44	ELTAKYLNYYR [P3H4_Y181_Q186R]	0.498	0.392	0.374	0.419	0.369	0.498	0.748	0.639	0.541	0.496	0.606	0.616	0.512
0.425	0.402	0.471	ENEGTYVCIAA [ADAMTSL3_Y1365_T1370A]	1.08	1.05	1.75	1.21	1.39	1.53	1.36	1.34	1.62	0.69	1.55	1.05	1.09
0.69	0.758	0.916	EQQRAYLEGTC [HLA-C_Y183_L180Q]	0.834	0.455	0.531	0.556	0.518	0.599	1.03	0.939	0.602	0.521	0.647	0.93	0.555
12.9	0.558	0.83	ESLRPYDVMDV [KCNQ2_Y562]	0.595	0.846	0.719	0.602	0.668	0.455	1.14	1.03	0.665	0.437	0.583	0.876	0.683
